Measurements as given in paper PMC6424611.

Key:
Settings in all cases: reference: unphosphorylated peptide; sites S732
ARHGEF12 PDZ domain = ARHGEF12 PDZ domain (UniProt Q9NZN5); assay: SPR, biotin-peptide on streptavidin chip
GOPC PDZ domain = GOPC PDZ domain (UniProt Q9HD26); assay: SPR, biotin-peptide on streptavidin chip
MAST1 PDZ domain = MAST1 PDZ domain (UniProt Q9Y2H9); assay: SPR, biotin-peptide on streptavidin chip
MAST2 PDZ domain = MAST2 PDZ domain (UniProt Q6P0Q8); assay: SPR, biotin-peptide on streptavidin chip
PDZD7 PDZ domain 3 = PDZD7 PDZ domain 3 (UniProt Q9H5P4); assay: SPR, biotin-peptide on streptavidin chip
ARHGEF11 PDZ domain = ARHGEF11 PDZ domain (UniProt O15085); assay: automated holdup, biotin-peptide resin
DFNB31 PDZ domain 3 = DFNB31 PDZ domain 3 (UniProt Q9P202); assay: automated holdup, biotin-peptide resin
DLG4 PDZ domain 2 = DLG4 PDZ domain 2 (UniProt P78352); assay: automated holdup, biotin-peptide resin
GORASP1 PDZ domain = GORASP1 PDZ domain (UniProt Q9BQQ3); assay: automated holdup, biotin-peptide resin
GORASP2 PDZ domain = GORASP2 PDZ domain (UniProt Q9H8Y8); assay: automated holdup, biotin-peptide resin
GRASP PDZ domain = GRASP PDZ domain (UniProt Q7Z6J2); assay: automated holdup, biotin-peptide resin
GRID2IP PDZ domain 1 = GRID2IP PDZ domain 1 (UniProt A4D2P6); assay: automated holdup, biotin-peptide resin
HTRA1 PDZ domain = HTRA1 PDZ domain (UniProt Q92743); assay: automated holdup, biotin-peptide resin
LAP2 PDZ domain = LAP2 PDZ domain (UniProt Q96RT1); assay: automated holdup, biotin-peptide resin
LIMK2 PDZ domain = LIMK2 PDZ domain (UniProt P53671); assay: automated holdup, biotin-peptide resin
LNX1 PDZ domain 3 = LNX1 PDZ domain 3 (UniProt Q8TBB1); assay: automated holdup, biotin-peptide resin
MAGI1 PDZ domain 2 = MAGI1 PDZ domain 2 (UniProt Q96QZ7); assay: automated holdup, biotin-peptide resin
MAGI2 PDZ domain 2 = MAGI2 PDZ domain 2 (UniProt Q86UL8); assay: automated holdup, biotin-peptide resin
MAGI3 PDZ domain 2 = MAGI3 PDZ domain 2 (UniProt Q5TCQ9); assay: automated holdup, biotin-peptide resin
NHERF2 PDZ domain 2 = NHERF2 PDZ domain 2 (UniProt Q15599); assay: automated holdup, biotin-peptide resin
NHERF3 PDZ domain 1 = NHERF3 PDZ domain 1 (UniProt Q5T2W1); assay: automated holdup, biotin-peptide resin
PDZRN3 PDZ domain 1 = PDZRN3 PDZ domain 1 (UniProt Q9UPQ7); assay: automated holdup, biotin-peptide resin
PPP1R9A PDZ domain = PPP1R9A PDZ domain (UniProt Q9ULJ8); assay: automated holdup, biotin-peptide resin
PTPN3 PDZ domain = PTPN3 PDZ domain (UniProt P26045); assay: automated holdup, biotin-peptide resin
SHANK3 PDZ domain = SHANK3 PDZ domain (UniProt Q9BYB0); assay: automated holdup, biotin-peptide resin
SHROOM2 PDZ domain = SHROOM2 PDZ domain (UniProt Q13796); assay: automated holdup, biotin-peptide resin
SHROOM2 PDZ domain, sequence (Q13796 whole entry, looked up, the tested form may be a part): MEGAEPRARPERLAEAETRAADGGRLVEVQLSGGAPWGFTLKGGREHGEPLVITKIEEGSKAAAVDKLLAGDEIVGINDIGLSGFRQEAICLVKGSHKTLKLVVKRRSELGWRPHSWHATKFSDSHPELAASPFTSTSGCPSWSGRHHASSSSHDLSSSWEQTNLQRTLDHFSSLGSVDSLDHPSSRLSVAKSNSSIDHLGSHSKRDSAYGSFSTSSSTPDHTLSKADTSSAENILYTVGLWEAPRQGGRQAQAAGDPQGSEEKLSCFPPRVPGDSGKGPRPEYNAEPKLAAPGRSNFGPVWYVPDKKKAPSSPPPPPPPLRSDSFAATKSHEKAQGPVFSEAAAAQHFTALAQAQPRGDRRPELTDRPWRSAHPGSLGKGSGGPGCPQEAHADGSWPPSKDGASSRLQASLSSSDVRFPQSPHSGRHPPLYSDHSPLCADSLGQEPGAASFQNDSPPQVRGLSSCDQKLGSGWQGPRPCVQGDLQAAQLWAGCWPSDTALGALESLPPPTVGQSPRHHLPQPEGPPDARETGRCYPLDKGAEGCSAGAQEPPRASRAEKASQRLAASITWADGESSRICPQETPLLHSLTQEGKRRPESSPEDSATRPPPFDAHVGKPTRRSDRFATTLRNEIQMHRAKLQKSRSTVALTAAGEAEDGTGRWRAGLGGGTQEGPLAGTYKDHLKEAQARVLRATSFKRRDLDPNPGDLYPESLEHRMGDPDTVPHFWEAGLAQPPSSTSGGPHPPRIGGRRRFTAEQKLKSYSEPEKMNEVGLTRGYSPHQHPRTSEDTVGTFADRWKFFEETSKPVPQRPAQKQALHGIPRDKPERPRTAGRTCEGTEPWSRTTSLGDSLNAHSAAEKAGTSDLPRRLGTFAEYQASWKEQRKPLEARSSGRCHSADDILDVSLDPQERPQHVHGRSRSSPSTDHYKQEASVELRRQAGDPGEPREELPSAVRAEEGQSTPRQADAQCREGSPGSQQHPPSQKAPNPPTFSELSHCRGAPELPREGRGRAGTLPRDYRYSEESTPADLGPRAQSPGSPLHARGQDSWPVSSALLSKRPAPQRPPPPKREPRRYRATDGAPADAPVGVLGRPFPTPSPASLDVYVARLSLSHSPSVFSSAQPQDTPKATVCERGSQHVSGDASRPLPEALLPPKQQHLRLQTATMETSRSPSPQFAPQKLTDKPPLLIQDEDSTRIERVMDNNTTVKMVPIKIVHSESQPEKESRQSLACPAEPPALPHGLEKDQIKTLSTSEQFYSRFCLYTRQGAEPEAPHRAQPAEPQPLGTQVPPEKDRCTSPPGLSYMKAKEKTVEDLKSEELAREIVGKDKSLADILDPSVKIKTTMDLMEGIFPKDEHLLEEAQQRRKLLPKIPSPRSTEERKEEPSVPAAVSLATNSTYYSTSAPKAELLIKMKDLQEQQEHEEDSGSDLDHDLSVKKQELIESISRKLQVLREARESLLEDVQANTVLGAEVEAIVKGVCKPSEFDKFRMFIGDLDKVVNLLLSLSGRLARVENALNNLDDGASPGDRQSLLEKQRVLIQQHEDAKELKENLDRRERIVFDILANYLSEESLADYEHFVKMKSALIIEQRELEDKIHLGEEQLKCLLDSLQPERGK

MAGI2 PDZ domain 2, sequence (Q86UL8 whole entry, looked up, the tested form may be a part): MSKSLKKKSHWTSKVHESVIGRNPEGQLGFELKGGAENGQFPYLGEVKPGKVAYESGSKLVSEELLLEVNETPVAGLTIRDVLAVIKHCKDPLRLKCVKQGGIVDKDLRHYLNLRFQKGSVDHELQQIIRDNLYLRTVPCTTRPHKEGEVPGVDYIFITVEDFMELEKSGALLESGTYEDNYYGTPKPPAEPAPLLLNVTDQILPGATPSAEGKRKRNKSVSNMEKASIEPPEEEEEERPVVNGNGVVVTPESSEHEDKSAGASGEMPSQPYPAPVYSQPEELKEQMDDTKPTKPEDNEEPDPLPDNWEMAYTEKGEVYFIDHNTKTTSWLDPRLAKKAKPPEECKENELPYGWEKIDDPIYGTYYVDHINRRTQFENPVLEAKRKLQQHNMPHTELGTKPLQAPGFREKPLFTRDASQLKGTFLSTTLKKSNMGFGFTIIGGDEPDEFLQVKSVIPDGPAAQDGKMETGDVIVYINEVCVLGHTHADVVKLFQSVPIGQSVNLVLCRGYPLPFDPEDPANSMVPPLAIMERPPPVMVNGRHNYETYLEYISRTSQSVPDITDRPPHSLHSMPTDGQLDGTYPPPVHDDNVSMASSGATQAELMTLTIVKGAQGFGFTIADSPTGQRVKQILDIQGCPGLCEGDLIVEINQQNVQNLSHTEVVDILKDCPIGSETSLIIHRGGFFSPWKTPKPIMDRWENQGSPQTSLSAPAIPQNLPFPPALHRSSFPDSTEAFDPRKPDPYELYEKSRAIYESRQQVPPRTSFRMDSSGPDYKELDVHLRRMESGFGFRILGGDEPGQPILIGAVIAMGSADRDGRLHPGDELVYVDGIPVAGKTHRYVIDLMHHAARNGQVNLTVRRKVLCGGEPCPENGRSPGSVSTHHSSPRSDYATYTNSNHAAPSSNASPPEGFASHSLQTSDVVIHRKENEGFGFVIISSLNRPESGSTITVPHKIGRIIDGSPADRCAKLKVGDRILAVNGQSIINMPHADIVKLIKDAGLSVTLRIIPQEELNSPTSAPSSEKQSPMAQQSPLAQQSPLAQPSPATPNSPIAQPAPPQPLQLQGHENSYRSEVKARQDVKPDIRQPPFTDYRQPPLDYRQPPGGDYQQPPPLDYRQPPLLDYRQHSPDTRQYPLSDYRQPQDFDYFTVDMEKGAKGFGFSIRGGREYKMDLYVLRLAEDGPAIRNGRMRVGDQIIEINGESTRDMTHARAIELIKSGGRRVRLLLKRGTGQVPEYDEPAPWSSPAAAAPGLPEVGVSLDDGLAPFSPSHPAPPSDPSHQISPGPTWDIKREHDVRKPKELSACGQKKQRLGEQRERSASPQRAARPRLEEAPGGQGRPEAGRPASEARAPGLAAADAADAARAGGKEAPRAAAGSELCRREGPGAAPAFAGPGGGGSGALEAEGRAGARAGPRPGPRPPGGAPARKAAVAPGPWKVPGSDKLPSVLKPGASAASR
DFNB31 PDZ domain 3, sequence (Q9P202 whole entry, looked up, the tested form may be a part): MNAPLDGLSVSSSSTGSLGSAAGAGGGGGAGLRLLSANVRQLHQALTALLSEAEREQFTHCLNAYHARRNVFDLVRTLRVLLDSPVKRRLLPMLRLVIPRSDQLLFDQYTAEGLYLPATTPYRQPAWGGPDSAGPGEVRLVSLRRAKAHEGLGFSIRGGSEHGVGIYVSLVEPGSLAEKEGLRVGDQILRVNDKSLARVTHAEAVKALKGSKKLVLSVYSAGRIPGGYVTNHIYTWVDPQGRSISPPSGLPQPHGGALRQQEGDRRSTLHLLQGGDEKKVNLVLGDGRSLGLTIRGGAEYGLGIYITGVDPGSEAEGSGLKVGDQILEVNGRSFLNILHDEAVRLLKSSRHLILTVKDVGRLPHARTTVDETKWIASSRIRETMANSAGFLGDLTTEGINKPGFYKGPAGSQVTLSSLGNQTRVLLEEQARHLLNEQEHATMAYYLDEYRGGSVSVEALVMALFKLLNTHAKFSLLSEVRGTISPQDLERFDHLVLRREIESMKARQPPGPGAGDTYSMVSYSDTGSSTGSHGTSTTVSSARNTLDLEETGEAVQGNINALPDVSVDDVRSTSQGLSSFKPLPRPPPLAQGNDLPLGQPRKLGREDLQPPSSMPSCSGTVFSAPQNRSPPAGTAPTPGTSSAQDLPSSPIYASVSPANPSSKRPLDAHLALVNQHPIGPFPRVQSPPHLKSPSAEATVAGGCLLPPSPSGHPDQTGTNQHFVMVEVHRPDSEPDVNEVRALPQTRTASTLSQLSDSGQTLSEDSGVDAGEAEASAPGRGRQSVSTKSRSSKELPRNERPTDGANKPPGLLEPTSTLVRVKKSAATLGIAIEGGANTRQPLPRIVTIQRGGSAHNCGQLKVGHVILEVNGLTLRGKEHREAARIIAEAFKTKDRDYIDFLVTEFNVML
PTPN3 PDZ domain, sequence (P26045 whole entry, looked up, the tested form may be a part): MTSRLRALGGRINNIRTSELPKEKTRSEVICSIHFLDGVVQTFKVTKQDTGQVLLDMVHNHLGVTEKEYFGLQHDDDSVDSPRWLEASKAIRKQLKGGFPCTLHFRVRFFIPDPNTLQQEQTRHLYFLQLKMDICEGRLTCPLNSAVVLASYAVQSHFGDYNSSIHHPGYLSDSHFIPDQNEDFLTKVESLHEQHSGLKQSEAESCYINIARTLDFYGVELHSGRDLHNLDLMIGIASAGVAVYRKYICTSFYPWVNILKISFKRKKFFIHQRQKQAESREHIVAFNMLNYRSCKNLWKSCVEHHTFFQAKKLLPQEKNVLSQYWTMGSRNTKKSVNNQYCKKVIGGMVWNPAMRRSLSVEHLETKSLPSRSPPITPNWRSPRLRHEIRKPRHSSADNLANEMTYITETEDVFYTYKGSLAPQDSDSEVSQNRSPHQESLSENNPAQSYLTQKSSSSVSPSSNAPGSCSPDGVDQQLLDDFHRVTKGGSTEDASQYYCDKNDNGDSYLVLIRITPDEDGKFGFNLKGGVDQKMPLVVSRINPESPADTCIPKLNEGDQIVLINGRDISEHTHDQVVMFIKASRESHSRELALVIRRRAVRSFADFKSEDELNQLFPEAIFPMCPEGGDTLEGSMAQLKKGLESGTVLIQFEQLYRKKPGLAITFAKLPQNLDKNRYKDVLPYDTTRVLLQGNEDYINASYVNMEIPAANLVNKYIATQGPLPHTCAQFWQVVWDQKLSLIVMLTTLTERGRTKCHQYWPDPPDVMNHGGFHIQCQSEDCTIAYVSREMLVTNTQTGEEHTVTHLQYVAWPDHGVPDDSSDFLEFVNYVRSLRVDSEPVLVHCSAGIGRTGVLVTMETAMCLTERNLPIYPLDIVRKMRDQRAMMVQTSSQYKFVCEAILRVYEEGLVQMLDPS

Question: With “RSK1 (ribosomal S6 kinase 1) 725-735 (from UniProt Q15418) pS732 peptide” as the substance, how does the KD (ARHGEF12 PDZ domain) read?
Answer: lost; reference 2.79 ± 0.11

Question: And the KD (GOPC PDZ domain)?
Answer: weaker; reference 8.92 ± 0.44

Question: And the KD (MAST1 PDZ domain)?
Answer: weaker; reference 20 ± 1

Question: And the KD (MAST2 PDZ domain)?
Answer: weaker; reference 7.02 ± 0.27

Question: And the KD (PDZD7 PDZ domain 3)?
Answer: weaker; reference 6.2 ± 0.9

Question: And the “other: holdup binding intensity (BI)” value (ARHGEF11 PDZ domain)?
Answer: lost; reference 0.28 ± 0.06

Question: And the “other: holdup binding intensity (BI)” value (DFNB31 PDZ domain 3)?
Answer: lost; reference 0.23 ± 0.04

Question: What about the “other: holdup binding intensity (BI)” value (DLG4 PDZ domain 2) of the same substance?
Answer: gained; reference 0.11 ± 0.03

Question: And the “other: holdup binding intensity (BI)” value (GORASP1 PDZ domain)?
Answer: gained; reference 0.01 ± 0.02

Question: What about the “other: holdup binding intensity (BI)” value (GORASP2 PDZ domain) of the same substance?
Answer: weaker; reference 0.41 ± 0.02

Question: And the “other: holdup binding intensity (BI)” value (GRASP PDZ domain)?
Answer: lost; reference 0.29 ± 0.01

Question: What about the “other: holdup binding intensity (BI)” value (GRID2IP PDZ domain 1) of the same substance?
Answer: gained; reference 0.06 ± 0.02

Question: What about the “other: holdup binding intensity (BI)” value (HTRA1 PDZ domain) of the same substance?
Answer: weaker; reference 0.44 ± 0.03

Question: What about the “other: holdup binding intensity (BI)” value (LAP2 PDZ domain) of the same substance?
Answer: gained; reference −0.02 ± 0.05

Question: And the “other: holdup binding intensity (BI)” value (LIMK2 PDZ domain)?
Answer: gained; reference 0.01 ± 0.06

Question: What about the “other: holdup binding intensity (BI)” value (LNX1 PDZ domain 3) of the same substance?
Answer: gained; reference 0.04 ± 0.02

Question: What about the “other: holdup binding intensity (BI)” value (MAGI1 PDZ domain 2) of the same substance?
Answer: weaker; reference 0.43 ± 0.02

Question: What about the “other: holdup binding intensity (BI)” value (MAGI2 PDZ domain 2) of the same substance?
Answer: weaker; reference 0.42 ± 0.01

Question: What about the “other: holdup binding intensity (BI)” value (MAGI3 PDZ domain 2) of the same substance?
Answer: same; reference 0.28 ± 0.03

Question: And the “other: holdup binding intensity (BI)” value (NHERF2 PDZ domain 2)?
Answer: lost; reference 0.20 ± 0.04

Question: And the “other: holdup binding intensity (BI)” value (NHERF3 PDZ domain 1)?
Answer: lost; reference 0.41 ± 0.01

Question: What about the “other: holdup binding intensity (BI)” value (PDZRN3 PDZ domain 1) of the same substance?
Answer: stronger; reference 0.26 ± 0.01

Question: And the “other: holdup binding intensity (BI)” value (PPP1R9A PDZ domain)?
Answer: gained; reference 0.00 ± 0.02

Question: And the “other: holdup binding intensity (BI)” value (PTPN3 PDZ domain)?
Answer: gained; reference 0.05 ± 0.02

Question: What about the “other: holdup binding intensity (BI)” value (SHANK3 PDZ domain) of the same substance?
Answer: lost; reference 0.27 ± 0.03

Question: What about the “other: holdup binding intensity (BI)” value (SHROOM2 PDZ domain) of the same substance?
Answer: gained; reference 0.00 ± 0.01
